Data as given in US10400224B2, “Enantioselective modified esterase enzyme and method for the production thereof” (CORPORACIÓN CORPOGEN, priority 2014, dated 2019).

What was measured:
[1] = Optimum temperature and pH of the modified enzyme (p-nitrophenyl ester assay); format: biochemical
Procedure: The activity of the modified enzyme was determined spectrophotometrically at 405 nm in a range of temperatures between 45 and 75° C., using p-nitro phenyl of other chains C6 to C10 (Sigma-Aldrich) as substrate. One unit of esterase activity was defined as the capacity of the enzyme to release 1 μmol min^−1 of p-nitrophenol under the essay conditions. The molar absorbance coefficient was of 16.900 M^−1 cm^−1. The mixture consisted of 448 μl of the Tris-HCl 50 mM buffer at 9.0 pH that contained 50 μl of p-nitrophenyl diluted in isopropanol and 2 μl of the solution stock of the protein. All the assays were made by triplicate and the average was calculated.
The optimum temperature of the modified enzyme was evaluated between 30 and 90° C. in buffer Tris HCl 50 mM (pH 9.0) exposing the enzyme to 30 minutes in each evaluated temperature (Suzuki et al., 2004, Park et al., 2006). […]
It was evaluated the activity of the enzyme by means of the p-nitrophenyl ester with some modifications, since for evaluating different pH values were used different buffer solutions, depending of the pH to evaluate: buffer acetate 50 mM (pH 5.0-6.0) buffer succinate (pH 4.0-5.5), MES (pH5.5-7.0). […] The protein was incubated for 15 minutes at a temperature higher than 45° C. and lower than 75° C. and then the quantification was made.

[2] = Kinetic resolution of racemic phenyl ester of ibuprofen (chiral HPLC); format: biochemical
Procedure: An evaluation was performed analytical scale to deter mine the kinetic resolution of phenyl ester substrates of ibuprofen and naproxen (Chow et al., 2012). The evaluation of the kinetic resolution for phenyl ester substrates of ibuprofen was developed in the following manner:
i) A solution with 17.32 Ml of buffer phosphate (100 mM, pH 8.0) was mixed with 2 ml. of DMSO and 0.66 mil of the stock solution of the substrate (10 mM in DMSO). To this solution it was added 100 μl of the enzyme to evaluate. The reaction was made with continuous agitation at a temperature from 45° C. and 75° C. for 80 minutes.
ii) The reaction was stopped by the addition of a concentrated solution of HCl (pH 1.0). Immediately thereafter, it was extracted the ibuprofen with methyl tertiary butyl ether (MTBE) twice with 20 ml of the solution.
iii) The ibuprofen was derivatized as a methyl ester after having added a solution of diazomethane 0.5 M in ethanol. The solvent was removed by means of reduction of pressure.
iv) The enantiomeric excess of the phenyl ester Ibuprofen and of the methyl ester ibuprofen was determined by means of chiral liquid high efficiency chromatography (HPLC—High performance liquid chromatography) (Dionex) using a Chiralpak IA column, under the following conditions: • A mobile phase n-heptane:isopropanol with a ratio of 99.8:0.2 • A flow of 0.5 mL.min^1 • Reading at 210 nm.
v) The retention time for the enantiomer (S) methyl ester ibuprofen was of 10:23 minutes, while that for the enantiomer (R) methyl ester ibuprofen was of 11:17 minutes. The retention time for the enantiomers (S) and (R) phenyl ester ibuprofen were of 16.32 and 18.07 respectively.

[3] = Kinetic resolution of phenyl ester of naproxen (1H-NMR, chiral HPLC); format: biochemical
Procedure: (§1) The enantioselectivity was evaluated by means of the kinetic resolution of the substrates phenyl ester naproxen and pNP ester naproxen. The procedure was the following (Chow et al., 2012):
(§2) i) 69.29 mL of a buffer phosphate solution (100 mM, pH 8.0) was mixed with 8 mL of DMSO-d6 and 2.64 mL of the stock solution of the substrate (10 mM in DMSO-d6). To this solution, it was added 200 μl of the enzyme to evaluate. The reaction was performed under continuous agitation at a temperature between 45° C. and 75° C. for 40 minutes.
(§3) ii) The reaction was stopped by adding a concentrated solution of HCl (pH 1.0). Immediately, the naproxen was extracted with MTBE twice with 20 ml of the solution.
(§4) iii) The extracted mixture of naproxen was dried under reduced pressure conditions. The transformation of this substrate was determined by means of MRI spectrographs (1H-NMR, Hydrogen-1 nuclear magnetic resonance) in which were compared the signals generated by the methyl groups from the naproxen and its corresponding esters.
(§5) iv) After measuring the samples containing the naproxen and the phenyl ester of naproxen, these samples were mixed with MTBE, 20 mL and extracted again with 20 mL, from an aqueous solution of NaHCO3.
(§6) v) The aqueous phase was acidified with HCl and it was extracted with MTBE, 20 ml. The extracted naproxen was derivatized to methyl ester through the addition of a solution of diazomethane 0.5 M in ethanol. The solvent was removed by a reduced pressure.
(§7) vi) The enantiomeric excess of the methyl ester ibuprofen was determined by means of chiral liquid high efficiency chromatography (HPLC—High performance liquid chromatography) (Dionex) using a Chiralcel ODH, under the following conditions • A mobile phase n-heptane: isopropanol with a ratio of 99:1 • A flow of 0.5 mL.min^1 • Reading at 225 nm.
(§8) vii) The retention time for the (S) and (R) enantiomers of methyl ester naproxen were of 22.84 and 19.39 minutes, respectively.

[4] = Kinetic resolution of pNP ester of naproxen (1H-NMR, chiral HPLC); format: biochemical
Procedure: as §1, §2, §3, §4, §5, §6, §7, §8
viii) The samples evaluated by NMR, underwent an additional test for determining the ee, by means of chiral HPLC with a CD detector (Jasco) using a Hyperclone ODS C18 column, under the following conditions: • A mobile phase of acetonitrile:water in a ratio of 80:20. • Flow of 0.5 mL.min^−1 • Reading of 220 nm
ix) The retention time for the p-NP ester of naproxen was of 3.83 minutes. The CD signal was measured at 280 nm.

[5] = Storage of the purified modified protein in Tris-HCl buffer; format: physicochemical; settings: Tris-HCL buffer at 9.0 pH, 4° C.
Procedure: Thereafter, the product of the elution was concentrated in Amicon columns of 30 kDa. This concentration process was strictly necessary in order to be able to rule out the elution solution in which it was the protein and permit to leave it in a Tris-HCL buffer at a 9.0 pH, which permits stability to the modified protein. […] The purity of the protein was evaluated in a SDS-PAGE gel at 12% (p/v).

[6] = calculated by method of Kroutil et al, 1997

B1: 499EST: esterase enzyme of SEQ No. 2 from strain USBA-GBX-499 with a C-terminal tail of 5-10 histidine residues (protein, listed as Acidicaldus sp.)
chain: MPLDRHAEAVLEMIRQSGRPPYETLTPAEARGLYRQAREVLAPEPPPVAEVRDLSLPHPAGPALPTRLYRPQQGGAPLPLLVYFHGGGWVIGDLETHDVVCREIANRAGIGVLSIDYRLAPEHKFPAAVEDAFAATRWAAKEAPSLGFDPARLAVGGDSAGGNLAAVVSLLAREQGGPSIAFQLLIYPATDLGMTHPSHQRWAEGYLLTRPTMEWFRAHYLTDPTREIADWRVSPLRAPDLRGLPPAFVLTAEYDPLVDEGEDYAARLAAAGVPVATHRVPGMIHGFLTMGKAIPAANEALGLIAERLRAALA
modifications: C-terminal histidine tail; amino acid sequence of 499EST
- pH of optimum activity [1]: 9.0
- temperature of optimum activity [1]: 55 °C
- conversion c [2, 6]: 56%
- enantioselectivity E [2, 6]: 4
- ee of the substrate (phenyl ester of ibuprofen) ([2]; chiral HPLC): 50%
- ee of the product ([2]; chiral HPLC, product derivatized as methyl ester): 40%
- conversion ([3]; 1H-RMN): 52%
- ee of naproxen product ([3]; HPLC): 65%
- enantioselectivity E ([3]; phenyl ester of naproxen): 10
- conversion ([4]; 1H-RMN): 49%
- ee of naproxen product ([4]; HPLC): 31%
- enantioselectivity lower for the pNP ester than for the phenyl ester ([4]; naproxen esters): 5 times
- enantioselectivity E ([4]; pNP ester of naproxen): 2
- storage time [5]: several months
